1 substance from patent publication US20080193426A1, “MIGRATION OF HEMATOPOIETIC STEM CELLS AND PROGENITOR CELLS TO THE LIVER” (YEDA RESEARCH AND DEVELOPMENT CO., LTD., priority 2001, published 2008) can be followed below.

The target of the assay is T1, CXCR4 (Homo sapiens, UniProt P61073).
T1 construct: homing of human CD34+ enriched MPB cells to the liver of NOD/SCID mice; endogenous in cells; host or cells: CD34+ enriched mobilized peripheral blood cells, thawed and incubated overnight with SLF, transplanted into non-irradiated NOD/SCID mice
T1 sequence (P61073 whole entry): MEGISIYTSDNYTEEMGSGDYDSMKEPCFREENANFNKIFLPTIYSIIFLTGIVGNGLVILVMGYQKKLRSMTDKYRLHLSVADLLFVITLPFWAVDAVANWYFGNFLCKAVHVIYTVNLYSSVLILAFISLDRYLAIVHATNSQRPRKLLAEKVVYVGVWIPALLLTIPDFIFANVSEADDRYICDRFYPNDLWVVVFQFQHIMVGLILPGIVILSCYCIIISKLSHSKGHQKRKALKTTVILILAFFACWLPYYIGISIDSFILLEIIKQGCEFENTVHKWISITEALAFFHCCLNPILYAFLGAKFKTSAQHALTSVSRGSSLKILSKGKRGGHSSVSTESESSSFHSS
As to the kind of experiment: Homing of human CD34+ enriched MPB cells to the liver of non-irradiated NOD/SCID mice, SDF-1 injected into the liver. The class given is in vivo. The following applies: for homing of human stem cells and progenitor cells to the liver (in words): SDF-1 injected into the liver. The method, then: The following experiment was carried out in order to test whether homing of human CD34+ enriched MPB cells to the liver of NOD/SCID mice requires high concentrations of human SDF-1 in the liver.
Frozen […] mobilized peripheral blood (MPB) CD34+ cells were thawed, and incubated at 37° C. over night with 50 ng/ml SLF for recovery. In contrast to the experiment described in example 1, this experiment was carried out with non irradiated mice (not pre-conditioned) and also in non-irradiated mice in which human SDF-1 has been injected directly into the liver immediately prior transplantation. Briefly, non-irradiated NOD/SCID mice were anaesthetized and 1 microgram SDF-1 (in 50 microliter PBS) were injected into the right lobe of the liver. Next, treated and control mice were transplanted intravenously with 8×10^5 CD34+ MPB enriched cells. In one group, CD34+ cells were incubated for 30 min. (4° C.) with 10 micrograms of neutralizing anti-human CXCR4 mAb (12G5), and co-transplanted without washing. Four hours later, the injected lobe was harvested, a single cell suspension was prepared and introduced to flow cytometry analysis, using human specific anti CD34-FITC and anti CD38-PE mAb. Injection of SDF-1 to the liver creates a positive gradient in the liver and a negative gradient in the blood. Since this gradient is maintained for about 4 hours only, therefore the mice were sacrificed and homing was tested rapidly, four hours after cell injection.

In the case of “SDF-1: human SDF-1, CXC chemokine and ligand of CXCR4, injected directly into the liver”, the “Number of human cells in the liver per 1 × 10^6 total aquired cells” value (1 microgram SDF-1 into right liver lobe, 8×10^5 CD34+ MPB cells IV, 12G5 10 micrograms, four hours, flow cytometry) stood at 38. The “% (number of human cells in the liver, SDF-1 group = 100)” value (1 microgram SDF-1 into right liver lobe, four hours after cell injection) turned out to be 100%. Moreover, the “homing of human stem cells and progenitor cells to the liver (in words)” value is “improves significantly” (four hours after cell injection); “a considerable number of human stem cells and progenitor cells were observed” (four hours after cell injection, listed as human SDF-1).
